± gives the uncertainty stated by the source.
Experiment: amyloid nucleation score (Sup35N fusion, yeast selection) (log enrichment); library NNK2; higher = more nucleation; inactive = no reads after selection
Outline: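 The nucleation score is the DiMSum log enrichment of output over input reads, centred on the mode score of non-aggregating sequences. Only sequences with 100 or more input reads were scored, using Illumina sequencing of input and output plasmid inserts. Psi-negative yeast expressing Sup35N fused to peptides of 20 random codons were induced 24 hours with 100 μM copper sulfate and grown 7 days at 30°C on medium lacking adenine and uracil.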

| Substance | amyloid nucleation score |
| --- | --- |
| DGPLSLNSIHFTWLRAMDKV | -0.297 ± 1.1 |
| IRRVSAQVCINWSIEWKSTR | 1.07 ± 0.33 |
| VIQNYL | -0.624 ± 0.39 |
| FKFGPMDSIKYMSANFISQC | -0.189 ± 0.64 |
| HPTSYVPSYLSFASKWLRVA | 0.571 ± 0.3 |
| FPIYFFA | inactive |
| YGPGFILSQMMNWLWYSCSS | -0.765 ± 0.78 |
| FMSGGVVYSLMTGTR | 0.388 ± 0.36 |
| VMWASERWYANETNSHLFSL | -0.105 ± 0.26 |
| FWRSMTYVRF | -0.526 ± 0.36 |
| SNLSRDESRVGSTGEQGDGG | -0.38 ± 0.55 |
| CNCQYHSVWIT | 0.392 ± 0.26 |
| DRYNHKSSMIREVRLLIASY | -0.123 ± 0.76 |
| KLTPYRISKMPSWLSA | inactive |
| SRRRLVPSLLTRIISGVRGR | -0.877 ± 0.55 |
| IVWSNMTIQQSTSSVY | -0.25 ± 0.25 |
| VIMSGHSNRHWRSGLERMAG | 0.823 ± 0.27 |
| SMRFVLAF | -1.92 ± 0.77 |
| SCIYLGVLRKVCMRFIMVIV | -1.03 ± 0.63 |
| AFNWIEVCEETSPGSTTEGS | 0.318 ± 0.39 |
| GMNAAGEVWVRGWTSGCMVY | 0.225 ± 0.5 |
| YVCFQFFDTC | 8.406 ± 0.038 |
| NWIPYVWGWIALIVGSDF | -0.158 ± 0.55 |
| VAESVSVT | 0.6 ± 0.24 |
| AIAAHFGLMPMCYLCTG | 7.25 ± 0.079 |

| Substance | amyloid nucleation score |
| --- | --- |
| GESTWATVLACPSERRSCSR | 0.559 ± 0.33 |
| AYMKYHAIRLNARFCGS | 3.53 ± 0.075 |
| TFSLLGL | 4.1 ± 0.064 |
| STSFIL | -0.718 ± 0.76 |
| VMPGSLCLVRVFFCIMHVLY | inactive |
| NMCQPMCVIVDWIIFISCVG | 2.49 ± 0.063 |
| VFKFLSAISPFKGD | 0.551 ± 0.38 |
| WKNYRNMEWCVSSVLSFFYV | 5.31 ± 0.077 |
| HFSDVSSEVGVIHCSMLGSN | -0.107 ± 0.49 |
| MCTELYEDGNKPTTRSDRSA | 3.21 ± 0.1 |
| LCCGSLDIYWFVFFF | 1.63 ± 0.25 |
| EYGVAT | 1.17 ± 0.18 |
| MLIPRVFISHVDICGYISCS | 4.626 ± 0.036 |
| LAFPCFRVSGYESYGFVRKL | 0.436 ± 0.31 |
| HYHTSISYR | 4.77 ± 0.1 |
| YRRGRLSMRSVWTKGCKERM | inactive |
| SLRIYGYMDRKSPKESSNFR | 0.975 ± 0.37 |
| NGNVVADWI | 0.809 ± 0.27 |
| CVFKVVPLVL | 0.005 ± 1 |
| QTRRIRYDWDAPQCGWVVTM | 3.82 ± 0.079 |
| LLFPLGISHAYMGRFFFRMV | -0.266 ± 1.1 |
| VGETLLSFCINWRVGYMFGN | -0.518 ± 0.5 |
| YLGMLYFLVASHASDFATYW | 4.16 ± 0.051 |
| MSLHPMRLHQWRPESIVLTE | 0.365 ± 0.66 |
| LVPSY | 0.457 ± 0.18 |

| Substance | amyloid nucleation score |
| --- | --- |
| CYRHVLFKATLKWCNFAVFI | 7.383 ± 0.046 |
| SFGFVAMMIVRCANFRASPV | 0.688 ± 0.81 |
| WCGREVNLHALLCKIDRLTI | 0.598 ± 0.49 |
| SSIINMTDAVGWFLELKNGE | 0.177 ± 0.37 |
| KSRNYIFSGYELVASPSSVK | inactive |
| NDYLFIFHLFCLVSCLMNKW | -0.228 ± 1.1 |
| TPAWCYPTGIGLIPPEWLGQ | 0.605 ± 0.23 |
| GSNHRSVVFIFLMLMGFMES | -0.205 ± 0.76 |
| LNCENELDFKLLSQSNTTMC | 0.199 ± 0.62 |
| SALERVKSWSQGNNSIGDHI | -0.418 ± 1.1 |
| DAAEISGLCLYDFLTGDLEQ | 2.27 ± 0.12 |
| IETNTSGSPIVPKDDLYNSY | -0.672 ± 0.55 |
| ATHKVWFESGYAHTPLVYLF | -0.588 ± 0.78 |
| PFILLGTPELVTNGEHAERG | 0.647 ± 0.66 |
| YSLCTTPMRAWVSYVFDVR | -1.04 ± 0.64 |
| NRNLDGFLPWNVHEAVGL | -0.003 ± 0.42 |
| VLSMDLQVIRSWKICSVSRK | 0.799 ± 0.17 |
| GRLLQGWLIAEHVITVHFPM | inactive |
| DMWTSFWSCSTYRKEYFTRC | 1.25 ± 0.11 |
| DSSMFYVIGLL | -0.626 ± 0.79 |
| FSEPWKWYYADLVFLSVTWL | inactive |
| GYLLGSDSGDGGPFVIERIK | 0.687 ± 0.38 |
| FWCINVSTWYNNQELI | inactive |
| FGFGRRKSKKWLVDLDPRR | inactive |
| YRACCVYNLGEVEWGVWVVC | -0.31 ± 0.21 |

| Substance | amyloid nucleation score |
| --- | --- |
| VIDTCGDVNRSRGQVLSGGV | 0.293 ± 0.3 |
| FASYRVY | 0.305 ± 1 |
| TGHRTRVQTELLAFIAQVN | -0.526 ± 0.63 |
| KLVVLCFLSVIVWVNGQR | 4.67 ± 0.07 |
| RFFYSCQASYPCSMVEMSVC | -0.901 ± 0.44 |
| ELLEGYSLKEMYAFPVKWAV | 0.741 ± 0.6 |
| QGPHARRHPTFRHKLYVLVI | 3.54 ± 0.099 |
| CFFSNQMADGYPQRWAVLRD | 4.94 ± 0.054 |
| FLDWVLSD | inactive |
| VWLNSHFLMGRI | -1.46 ± 0.54 |
| YLFFKFWNAVCDLIHNTNLY | inactive |
| RALVSRCRVCADKSPASSCD | -0.411 ± 0.45 |
| THIFVWNHFNLLRYTTKFLP | -0.304 ± 0.4 |
| PTSNPSQRSRQRHQ | 0.619 ± 0.81 |
| IQARSYFVPTFSFLCTHSPT | 0.839 ± 0.48 |
| IARLASQSYLDMVADAEDTG | 0.472 ± 0.49 |
| NWMHC | 1.39 ± 0.42 |
| LSKMWPPIHTTLIPLTDAER | 4.84 ± 0.06 |
| NIIFLGVGSVFKNWRTTILS | 4.02 ± 0.049 |
| VWCCHLNINVASSLTVSCTR | 0.544 ± 0.21 |
| DSEHYVMWLKWYLLFLTYTH | -0.307 ± 0.3 |
| GARASQRCESVGLPLEYVSR | 0.974 ± 0.29 |
| LQSCAGTFTCDCVVGRNYGR | 0.31 ± 0.23 |
| NVQALMN | 0.012 ± 0.74 |
| DKYSIVSSGPYMSNKSLVRR | -0.109 ± 0.79 |

| Substance | amyloid nucleation score |
| --- | --- |
| FHSRFSMRPDDLWSQNARVW | 0.028 ± 0.79 |
| TFFDGSCLVRLSWAQLEFLT | -0.471 ± 0.41 |
| PIYCINRFDNWYLL | 5.94 ± 0.041 |
| GGLVVECRVGW | 3.42 ± 0.13 |
| PYYKAGGYMVMVHLSRLFLL | -0.882 ± 0.47 |
| YLNVNNSQDNESAYVFDKVV | 0.058 ± 0.74 |
| YLACFTARL | 3.91 ± 0.049 |
| EKWLGLFKTYAESFDSCCLG | -0.581 ± 0.29 |
| YSPSRVS | -0.493 ± 0.48 |
| LAYIARR | -0.035 ± 0.76 |
| ALLDHFPDEGHFKATFISSI | 0.85 ± 0.58 |
| SLRLCLDTMEFRVFKNLGRV | 1.45 ± 0.099 |
| CFQYTQTNVMRFSYGIGHRE | 2.12 ± 0.18 |
| LQYFLGAFAILFMCLLWVLQ | 0.381 ± 0.64 |
| SARFCIWVYVSNGNNGMRCV | 3.52 ± 0.04 |
| SLNISCYWHLKFVMRAWHTW | -0.465 ± 1 |
| AYMYTMGYRSHHVTEVVVIW | -0.047 ± 0.49 |
| LNLFFLCGYPYYRNVGCMGH | 7.195 ± 0.067 |
| YVRYGP | -0.289 ± 0.26 |
| QKLLWCYACNVMRARSGSGT | 7.18 ± 0.044 |
| FSSQFHLRAYNTIRCSLDDF | 0.534 ± 0.8 |
| VDWVMNCYTSGVVSLSFSLG | inactive |
| AQDWVARIRWSVRQFYGARC | 2.18 ± 0.14 |
| LVESVTEEQE | 0.837 ± 0.47 |
| LHFGAGLTSSVCPSLYSQ | -0.931 ± 1.1 |

Reference: the supplement of paper PMC12042874
